Measurements reported in publication PMC11480844 (2024).

B1: H2-Kb / B15 (parent complex)
chain 1: QQQVRQSPQSLTVWEGETAILNCSYENSAFDYFPWYQQFPGEGPALLISILSVSDKKEDGRFTIFFNKREKKLSLHIADSQPGDSATYFCAASAASNNRLTLGKGTQVVVLP
chain 2: DSGVVQSPRHIIKEKGGRSVLTCIPISGHSNVVWYQQTLGKELKFLIQHYEKVERDKGFLPSRFSVQQFDDYHSEMNMSALELEDSAMYFCASSRRADAEQFFGPGTRLTVL
chain 3: not shown
chain 4: IQKTPQIQVYSRHPPENGKPNILNCYVTQFHPPHIEIQMLKNGKKIPKVEMSDMSFSKDWSFYILAHTEFTPTETDTYACRVKHDSMAEPKTVYWDRDM
chain 5: SIINFEKL

Variants of: B1
Assay: % of reporter cells activated (NFAT-GFP), raw; also: test concentration or dose not given here

Row | ratio to parent | Variant
1 | 0.391 | chain 5 N4L
2 | 0.0258 | chain 5 N4A
3 | 0.184 | chain 5 N4G
4 | 0.00683 | chain 5 N4M
5 | 0.151 | chain 5 N4Y
6 | 0.0638 | chain 5 N4W
7 | 0.0675 | chain 5 N4D
8 | 0.01 | chain 5 N4T
9 | 0.454 | chain 5 K7V
10 | 0.0863 | chain 5 K7I
11 | 0.291 | chain 5 K7H
12 | 0.774 | chain 5 K7S
13 | 0.928 | chain 5 K7R
14 | 0.124 | chain 5 K7T
15 | 0.155 | chain 5 K7M
16 | 0.383 | chain 5 K7Y
17 | 0.0434 | chain 5 K7E
18 | 0.117 | chain 5 K7D
19 | 0.491 | chain 5 I3H
20 | 0.0196 | chain 5 I3Y
21 | 0.891 | chain 5 I3M
22 | 0.812 | chain 5 I3L
23 | 0.0424 | chain 5 I3F
24 | 0.479 | chain 5 I3W
25 | 0.71 | chain 5 I3K

Row | ratio to parent | Variant
26 | 0.273 | chain 5 I3T
27 | 0.607 | chain 5 I3C
28 | 0.692 | chain 5 L8D
29 | 0.75 | chain 5 L8P
30 | 0.801 | chain 5 L8K
31 | 0.907 | chain 5 L8F
32 | 0.767 | chain 5 L8C
33 | 0.844 | chain 5 L8N
34 | 0.741 | chain 5 L8E
35 | 0.955 | chain 5 L8M
36 | 0.901 | chain 5 L8V
37 | 0.934 | chain 5 L8I
38 | 0.802 | chain 5 L8S
39 | 0.905 | chain 5 L8H
40 | 0.833 | chain 5 L8A
41 | 0.974 | chain 5 I2N
42 | 0.764 | chain 5 I2Y
43 | 0.934 | chain 5 I2C
44 | 1.03 | chain 5 I2L
45 | 1 | chain 5 I2V
46 | 0.972 | chain 5 I2R
47 | 0.9 | chain 5 I2H
48 | 0.917 | chain 5 I2G
49 | 0.959 | chain 5 I2S
50 | 0.987 | chain 5 I2D

Row | ratio to parent | Variant
51 | 0.85 | chain 5 I2Q
52 | 0.553 | chain 5 F5D
53 | 0.579 | chain 5 F5Q
54 | 0.952 | chain 5 F5Y
55 | 0.981 | chain 5 F5W
56 | 0.953 | chain 5 F5A
57 | 0.531 | chain 5 F5E
58 | 1.03 | chain 5 F5T
59 | 0.999 | chain 5 F5V
60 | 0.673 | chain 5 F5N
61 | 0.591 | chain 5 S1K
62 | 0.199 | chain 5 S1V
63 | 0.383 | chain 5 S1W
64 | 0.669 | chain 5 S1G
65 | 0.456 | chain 5 S1L
66 | 0.577 | chain 5 S1C
67 | 0.115 | chain 5 S1I
68 | 0.545 | chain 5 S1P
69 | 0.205 | chain 5 E6A
70 | 0.0123 | chain 5 E6V
71 | 0.00958 | chain 5 E6I
72 | 0.491 | chain 5 E6G
73 | 0.221 | chain 5 E6S
74 | 0.15 | chain 5 E6Y
75 | 0.13 | chain 5 E6F
